According to publication PMC5758874 (Nucleic Acids Research, 2017):
Where “and” joins values, the source holds several entries; their conditions need not be identical. Identical values can stand only once. Like-named read-outs stand apart in the source and are kept apart here.

Key:
[1] = target: the molecule itself; assay: crystal structure
[2] = target: the molecule itself; assay: SEC
[3] = target: the molecule itself; assay: crystal structure; remark: listed apart in the source
[4] = target: T1, RcsB Q185A (Salmonella enterica serovar Typhimurium, UniProt P58663 1-210, Q185A); assay: EMSA
T1 sequence: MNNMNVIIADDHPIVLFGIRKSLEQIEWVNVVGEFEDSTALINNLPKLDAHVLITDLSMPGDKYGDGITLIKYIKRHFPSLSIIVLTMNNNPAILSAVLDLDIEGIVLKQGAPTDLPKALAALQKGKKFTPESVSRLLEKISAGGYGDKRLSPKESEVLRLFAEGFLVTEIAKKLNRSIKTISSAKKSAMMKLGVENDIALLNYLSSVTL

[5] = target: T2, RcsB H12A (Salmonella enterica serovar Typhimurium, UniProt P58663 1-210, H12A); assay: EMSA
T2 sequence: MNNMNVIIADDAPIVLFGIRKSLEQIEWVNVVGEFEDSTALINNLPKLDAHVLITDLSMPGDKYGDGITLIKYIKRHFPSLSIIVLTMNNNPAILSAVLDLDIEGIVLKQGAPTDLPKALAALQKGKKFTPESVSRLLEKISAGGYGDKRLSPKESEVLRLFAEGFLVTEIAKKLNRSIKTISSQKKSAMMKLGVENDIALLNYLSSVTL

[6] = target: T3, RcsB L202F (Salmonella enterica serovar Typhimurium, UniProt P58663 1-210, L202F); assay: EMSA
T3 sequence: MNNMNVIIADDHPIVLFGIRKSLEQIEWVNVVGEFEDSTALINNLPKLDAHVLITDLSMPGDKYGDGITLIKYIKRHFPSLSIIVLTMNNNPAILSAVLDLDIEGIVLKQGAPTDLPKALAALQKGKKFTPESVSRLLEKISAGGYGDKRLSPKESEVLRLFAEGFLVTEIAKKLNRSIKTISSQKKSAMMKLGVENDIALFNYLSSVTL

[7] = target: T4, RcsB K180A (Salmonella enterica serovar Typhimurium, UniProt P58663 1-210, K180A); assay: EMSA
T4 sequence: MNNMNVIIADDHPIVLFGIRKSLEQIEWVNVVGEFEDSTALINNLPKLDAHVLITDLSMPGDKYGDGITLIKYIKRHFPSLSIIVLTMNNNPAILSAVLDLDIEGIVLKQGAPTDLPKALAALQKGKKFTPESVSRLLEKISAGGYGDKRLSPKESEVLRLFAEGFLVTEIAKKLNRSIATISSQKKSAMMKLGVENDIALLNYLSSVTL

[8] = target: T5, RcsB D56A (Salmonella enterica serovar Typhimurium, UniProt P58663 1-210, D56A); assay: EMSA
T5 sequence: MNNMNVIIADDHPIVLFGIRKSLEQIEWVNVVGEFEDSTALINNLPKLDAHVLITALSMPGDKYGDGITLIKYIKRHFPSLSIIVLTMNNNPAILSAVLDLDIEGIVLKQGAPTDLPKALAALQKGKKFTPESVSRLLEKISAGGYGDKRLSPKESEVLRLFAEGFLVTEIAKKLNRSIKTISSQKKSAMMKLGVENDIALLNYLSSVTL

[9] = target: T6, RcsB L202D (Salmonella enterica serovar Typhimurium, UniProt P58663 1-210, L202D); assay: EMSA
T6 sequence: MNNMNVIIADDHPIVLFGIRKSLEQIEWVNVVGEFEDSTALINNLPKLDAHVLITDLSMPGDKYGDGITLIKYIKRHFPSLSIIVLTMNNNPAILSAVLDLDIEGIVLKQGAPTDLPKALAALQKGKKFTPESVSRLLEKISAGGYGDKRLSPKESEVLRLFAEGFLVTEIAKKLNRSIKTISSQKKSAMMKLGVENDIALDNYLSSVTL

[10] = target: T7, RcsB WT (Salmonella enterica serovar Typhimurium, UniProt P58663 1-210); assay: EMSA
T7 sequence: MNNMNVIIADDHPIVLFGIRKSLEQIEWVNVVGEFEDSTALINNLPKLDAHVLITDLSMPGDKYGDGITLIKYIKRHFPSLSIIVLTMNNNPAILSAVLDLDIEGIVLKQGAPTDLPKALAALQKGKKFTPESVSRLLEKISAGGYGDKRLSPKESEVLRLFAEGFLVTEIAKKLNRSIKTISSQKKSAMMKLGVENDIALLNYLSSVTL

[11] = target: T8, RcsB M88A (Salmonella enterica serovar Typhimurium, UniProt P58663 1-210, M88A); assay: EMSA
T8 sequence: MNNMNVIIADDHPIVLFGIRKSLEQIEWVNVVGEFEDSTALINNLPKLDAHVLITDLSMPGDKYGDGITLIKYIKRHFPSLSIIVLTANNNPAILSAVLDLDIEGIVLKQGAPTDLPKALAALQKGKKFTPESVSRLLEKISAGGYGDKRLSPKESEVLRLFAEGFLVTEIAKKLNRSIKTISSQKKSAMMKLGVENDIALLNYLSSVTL

[12] = target: T9, RcsB A93D (Salmonella enterica serovar Typhimurium, UniProt P58663 1-210, A93D); assay: EMSA
T9 sequence: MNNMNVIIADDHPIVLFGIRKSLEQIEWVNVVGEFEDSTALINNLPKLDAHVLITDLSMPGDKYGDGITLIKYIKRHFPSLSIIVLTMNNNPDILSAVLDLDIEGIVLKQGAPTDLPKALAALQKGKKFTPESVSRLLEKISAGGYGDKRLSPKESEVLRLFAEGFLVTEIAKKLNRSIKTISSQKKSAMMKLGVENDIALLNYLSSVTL

[13] = target: T7, RcsB WT; assay: EMSA; remark: listed apart in the source

B1: RcsB from Salmonella enterica serovar Typhimurium (residues 1-210), wild type (natural protein, UniProt P58663 1-210, looked up)
chain: MNNMNVIIADDHPIVLFGIRKSLEQIEWVNVVGEFEDSTALINNLPKLDAHVLITDLSMPGDKYGDGITLIKYIKRHFPSLSIIVLTMNNNPAILSAVLDLDIEGIVLKQGAPTDLPKALAALQKGKKFTPESVSRLLEKISAGGYGDKRLSPKESEVLRLFAEGFLVTEIAKKLNRSIKTISSQKKSAMMKLGVENDIALLNYLSSVTL
- stoichiometry N [1]: 2

B2: RcsB M88A variant, incubated with acetylphosphate (natural protein, Salmonella enterica serovar Typhimurium, UniProt P58663 1-210, looked up)
chain: MNNMNVIIADDHPIVLFGIRKSLEQIEWVNVVGEFEDSTALINNLPKLDAHVLITDLSMPGDKYGDGITLIKYIKRHFPSLSIIVLTANNNPAILSAVLDLDIEGIVLKQGAPTDLPKALAALQKGKKFTPESVSRLLEKISAGGYGDKRLSPKESEVLRLFAEGFLVTEIAKKLNRSIKTISSQKKSAMMKLGVENDIALLNYLSSVTL
modifications: phosphorylated (D56) by incubation with acetylphosphate; higher level than the WT
- binding result [2]: binds

B3: Phosphorylated RcsB from S. Typhimurium (wild type incubated with acetylphosphate) (natural protein, Salmonella enterica serovar Typhimurium, UniProt P58663 1-210, looked up)
chain: MNNMNVIIADDHPIVLFGIRKSLEQIEWVNVVGEFEDSTALINNLPKLDAHVLITDLSMPGDKYGDGITLIKYIKRHFPSLSIIVLTMNNNPAILSAVLDLDIEGIVLKQGAPTDLPKALAALQKGKKFTPESVSRLLEKISAGGYGDKRLSPKESEVLRLFAEGFLVTEIAKKLNRSIKTISSQKKSAMMKLGVENDIALLNYLSSVTL
modifications: phosphorylated at D56 by incubation with acetylphosphate (AcP)
- stoichiometry N [2]: 2

B4: RcsB S207C variant (natural protein, Salmonella enterica serovar Typhimurium, UniProt P58663 1-210, looked up)
chain: MNNMNVIIADDHPIVLFGIRKSLEQIEWVNVVGEFEDSTALINNLPKLDAHVLITDLSMPGDKYGDGITLIKYIKRHFPSLSIIVLTMNNNPAILSAVLDLDIEGIVLKQGAPTDLPKALAALQKGKKFTPESVSRLLEKISAGGYGDKRLSPKESEVLRLFAEGFLVTEIAKKLNRSIKTISSQKKSAMMKLGVENDIALLNYLSCVTL
- stoichiometry N [3]: 2 and 6

B5: RcsB E170A variant, incubated with acetylphosphate (natural protein, Salmonella enterica serovar Typhimurium, UniProt P58663 1-210, looked up)
chain: MNNMNVIIADDHPIVLFGIRKSLEQIEWVNVVGEFEDSTALINNLPKLDAHVLITDLSMPGDKYGDGITLIKYIKRHFPSLSIIVLTMNNNPAILSAVLDLDIEGIVLKQGAPTDLPKALAALQKGKKFTPESVSRLLEKISAGGYGDKRLSPKESEVLRLFAEGFLVTAIAKKLNRSIKTISSQKKSAMMKLGVENDIALLNYLSSVTL
modifications: phosphorylated (D56) by incubation with acetylphosphate; reduced level against the WT
- binding result [2]: binds

B6: P1flhDC (dsDNA)
DNA 1: CGTCGAATTAGGAAAAATCTTAGGCA
DNA 2: TGCCTAAGATTTTTCCTAATTCGACG
- binding result [4]: no binding
- binding result [5]: no binding
- binding result [6]: binds
- binding result [7]: no binding
- binding result [8]: no binding
- binding result [9]: no binding
- binding result [10]: binds
- binding result [11]: binds
- binding result [12]: no binding

B7: rcsA promoter (dsDNA)
DNA 1: CCTGTTTTACTAAGGTTTATCCGAAAATA
DNA 2: TATTTTCGGATAAACCTTAGTAAAACAGG
- binding result [4]: no binding
- binding result [7]: no binding
- binding result [13]: binds
- binding result [12]: no binding
